Measured values as given in US20190241648A1 (STATEN BIOTECHNOLOGY B V, published 2019).

target: T1, human ApoC3 (huApoC3), native protein purified from human serum (human, UniProt P02656 21-99); test: cell-based or functional assay
T1 sequence (P02656 21-99): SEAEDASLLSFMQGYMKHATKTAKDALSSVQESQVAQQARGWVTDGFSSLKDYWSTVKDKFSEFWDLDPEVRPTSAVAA

Binder	attenuation of the ability of ApoC3 to inhibit VLDL uptake by HepG2 cells [%]	EC50, attenuation of ApoC3-mediated LPL inhibition (NEFA production) [nM]
14C7 scFv-Fc (Fc fusion) VH: QVQVQESGPGLVKPSQTLSLTCTVSGGSITTNSYYWSWIRQPPGKGLEWMGAIDYSGDTYYSPSLKSRTSISRDTSKNQFTLQLTSVTPEDTAVYYCVSRIPTGEYWGQGTQVTVSS VL: QTVVTQEPSLSVSPGGTVTLTCGLNSGSVTSSNYPDWYQQTPGQAPRLLIYNTNSRHSGVPSRFSGSISGNKAALTITGAQPEDEADYYCALYMGSDSVVFGGGTHLTVL	~100	
12C3 scFv-Fc (Fc fusion) VH: ELQLVESGGGLVQPGGSLRLSCAASGFTFSSYSMFWVRQSPGKGLERVSGINGGGDRSNYADSVRDRFTISRDNAKNTLYLQMNSLKSEDTAVYYCVIQGYAYWGQGTQVTVSS VL: DVVLTQTPASLSVVPGESASISCKASQSLVHSDGKTYLYWLLQKPGQSPQRLIYQTSNRGSGVPDRFTGSGSGTDFTLDISGVKAEDAGVYYCAQATYSPHTFGSGTRLEIK	~85	
12D4 scFv-Fc (Fc fusion) VH: QLQLVESGGGLVQPGGSLRVSCAASGFTFSSSNMRWVRQVSGKGLEWVSTISPDGGKTLYADSVKGRFTISRDNAKNTLHLQMVSLKPEDTALYYCVKAGYDYWGQGTQVTVSS VL: ATMLTQSPGSLSVVPGESASISCKASQSLVHSDGKTYLYWLLQKPGQSPQRLIYQVSNQGSGVPDRFTGSGSGTDFTLKISGVKAEDAGVYYCAQATYAPHSFGSGTRLEIK	~60	
14G4 scFv-Fc (Fc fusion) VH: QVQLVESGGGLVQPGGSLRLSCAASGFAFSRYTMNWVRQAPGKGLEWLSAISPDGGKTIDADSVKGAFASSRDNTMNTLYLDMNSLKPEDAAVYYCVAGHNMDYWGKGILVTVSS VL: DVVLTQTPGSLSVVPGESASISCKASQSLVHSDGKTYLYWLLQKPGQSPQRLIYQVSNQGSGVPDRFTGSGSGTDFTLKISGVKAEDAGVYYCAQATYTPRTFGQGTTLEVK	~100	
12A3 scFv-Fc (Fc fusion) VH: ELQLVESGGGLVQSGGSLRLSCAASGFTFSNYAMRWVRQAPGGRLEWVSSINIAGSSVVYADSVKGRFTISRDNAKNTLYLQMNSLKSEDTAVYYCAMQGFVYWGQGTQVTVSS VL: DVVLTQTPGSLSVVPGESANISCKAGRSLVHSDGRTYLYWLLQKPGQSPQRLIYQVSNRSSGVPDRFTGSGSGTDFTLKITGVKAEDAGVYYCAQGTYYPVTFGQGTKVELK	~100	
12C12 scFv-Fc (Fc fusion) VH: EVQVQESGPGLVKPSQTLSLTCTVSGGSITTSYYAWTWIRQPPGKGLEWVGAIVYDGSTFYSPSLKSRTSISRDTSKSQFSLQLSSVTPEDTAVYYCARSYGLGLYDLWGQGTQVTVSS VL: QAVLTQPPSVSGSPGQKFTISCTGSSSNIGDNYVNWYQHLPGTAPKLLIYSNSNRASGVPDRFSGSKSGSSASLTITGLQAEDEADYYCSSWDDSLSGVVFGGGTHLTVL	~100	
12E12 scFv-Fc (Fc fusion) VH: EVQLVESGGDLVQPGGSLRVSCAASGLTFSNIYMSWVRQAPGKGLEWVSAINTAGTVTYYADSVKGRFTISRDNAKNTLYLQMNSLKPEDTAHYYCTTGEVDWGKGTLVTVSS VL: QTVVTQEPSLSVSPGGTVTLTCGLSSGSVTSVTYPGWYQQKPGQAPRTLIYNTNSRFSGVPNRFSGSISGNKAALTITGALPEDEADYYCSVYIGGGIYPAVFGGGTHLTVL	~40	
8B4 scFv-Fc (Fc fusion) VH: ELQLVESGGGLVQPGGSLRLSCAASGFTFSNAYLYWVRQVPGKGLEWVSGINPAGDGRAYATSVKGRFTISRDNAKNTLYLQMNTLESDDTAVYYCATASRVVAYDSWGQGTQVTVSS VL: EIVLTQSPSSVTASVGEKVTINCKSSQSVESGSDQKSYLNWYQQRPGQSPRLLIYYASTQESGIPDRFSGSGSTTDFTLTISSVQPEDAAVYYCQQAYSAPFTFGQGTKVELK	~60	
12D1 scFv-Fc (Fc fusion) VH: QLQLVESGGGLVQPGGSLRLSCAASGFTFGTYSMRWVRQVPRKALEWVSSISTDGGGTAYRDSVKGRFTISRDNAKNTLYLQMNNLKPEDTAIYYCVIAGYSDWGQGTQVTVSS VL: SALDVVLTQTPGSLSVVPGESASISCKTSQSLTHSDGKTYLYWLLQKPGQSPQRLIYQVSNRGSGVPDRFTGSGSGTDFTLKISGVKAEDAGMYYCAQATYYPHTFGSGSRLEIER	~60	
5E5 IgG1 (antibody, V domains shown) VH: QLQLVESGGGLVQPGGSLRLSCAASGFTFGTYSMRWVRQVPRKALEWVSSISTDGGGTAYRDSVKGRFTISRDNAKNTLYLQMNNLKPEDTAIYYCVIAGYSDWGQGTQVTVSS VL: ATMLTQSPGSLSVVPGESASISCKTSQGLVHSDGKTYFYWFLQKPGQSPQQLIYQVSNRASGVPDRFTGSGSGTDFTLKISGVKAEDAGVYYCAQGTYYPHTFGSGTRLEIK		> 5000
14C4 scFv-Fc (Fc fusion) VH: QLQLVESGGGLVQPGGSLRLSCAASGFTFGNYDMSWVRQAPGKGPEWVSVINSDGDGTYYVDSVKGRFTISRDNAKNTLYLQMNSLKPEDRAVYYCAIANLGLWGQGTLVTVSS VL: ATMLTQSPGSLSVVPGESASISCKATQSLVHSDGKTYLSWLLQKPGQSPQRLIYQVSNRGSGVPDRFTGSGSGTDFTLKISGVKAEDAGVYYCAQAPYWTFGQGTKLEIK	~60	
13G7 IgG1 (antibody, V domains shown) VH: QVQLQESGPGLVKPSQTLSLTCTVSGGSISTTAPAWGWIRQSPGKGLDWMAVIAFDGSAYYSPSLKSRTLISRDTSKNQFSLQLSSVTPEDTAVYYCARLGGRNYPPYVELWGQGTLVTVSS VL: QPVLTQPPALSVTLGQTAKITCQGGSLRVSYAHWYQQKPGQAPVLVSYDDDSRPSGIPERFSGSGSGATATLTISGAQAEDEGDYYCQSADSSGDNWVFGGGTHLTVL		~3000
13G7 scFv-Fc (Fc fusion) VH: QVQLQESGPGLVKPSQTLSLTCTVSGGSISTTAPAWGWIRQSPGKGLDWMAVIAFDGSAYYSPSLKSRTLISRDTSKNQFSLQLSSVTPEDTAVYYCARLGGRNYPPYVELWGQGTLVTVSS VL: QPVLTQPPALSVTLGQTAKITCQGGSLRVSYAHWYQQKPGQAPVLVSYDDDSRPSGIPERFSGSGSGATATLTISGAQAEDEGDYYCQSADSSGDNWVFGGGTHLTVL	~100	
13C7 scFv-Fc (Fc fusion) VH: QLQLVESGGGLVQPGGSLRLSCAASGGTFSRYYMSWVRQAPGKGLEWVSSIYKDGSNTYYADSVKGRFTISRDNAKNTLYLQMNSLKSEDTAVYYCAKALRAEYDYWGQGTQVTVSS VL: NFMLTQPPSVSGTLGKTVTISCAGTSSDIGGYNYVAWYQQLPGTAPKLLISEVNKRASGIPDRFSGSKSGNTASLSISGLQSEDEADYYCASYRSSNSYVFGGGTKLTVL	~95	

target: T1, human ApoC3 (huApoC3), native protein …; test: SPR Biacore, huApoC3 on chip, scFv-Fc as analyte
Protocol: This example describes characterization of anti-ApoC3 antibodies regarding their affinity to ApoC3 under neutral conditions using an SPR-based assay using a Biacore 3000 instrument (Biacore AB). Native huApoC3 protein was immobilized on a CM5 chip. The immobilization was performed in accordance with the method provided by Biacore using the NHS/EDC kit (Biacore AB): after activation of the chip, a solution of 60 μg/ml of human ApoC3 in 10 mM acetate buffer with pH of 4.5 was prepared and injected until the surface density reached approximately 1000 RU. Capturing of the human ApoC3 on the streptavidin coated chip (SA) was performed at pH 7.4 in accordance with a method provided by Biacore via injection of 20 μl 10 μg/ml biotinylated human ApoC3 thereby reaching the surface density of approximately 500 RU. […] After the dissociation, the flow cell surfaces were regenerated by injecting 10 μl of 10 mM […]/1 M NaCl and 10 μl of 10 mM glycine at pH1.5. The resulting sensorgrams were analyzed using the BIAevaluation 4.1 software using Langmuir 1:1 binding model to derive binding kinetics. Data was zero adjusted and the reference cell sensorgrams were subtracted.
A number of scFv-Fc antibodies were examined in this assay. The association rate (ka), dissociation rate (kd), analyte binding capacity (Rmax), equilibrium association constant (KA) and equilibrium dissociation constant (KD) of these antibodies are shown in Table 5.

Binder	Ka [M⁻¹]	Kd [nM]	koff [s⁻¹]	kon [M⁻¹ s⁻¹]
11H1 scFv-Fc (Fc fusion, scFv-Fc format) VH: ELQLVESGGGLVQPGGSLRLSCAASGFTFSSYSMRWVRQAPGKGLEWLSSIKSDGSITSYADSVKGRFTMSRDNAKNTLYLQMNSLKSEDTAMYYCTNQGYINWGQGTQVTVSS VL: ATMLTQSPGSLTIVPGESASISCRASQSLIHSAGKTYFYWLLQKPGQRPQLLIYQVSNRESGVPDRFTGSGSGTDFTLKISGVKAEDAGVYYCAQGTYNPKTFGQGTKLEIK	5.89e+08	1.7	0.000207	122000
8B7 scFv-Fc (Fc fusion, scFv-Fc format) VH: EVQVQESGPGLVKPSQTLSLTCTVSGASITNRRYAWTWIRQPPGKGLEWMGVIVYDGNTHVSPSLRSRTSISRDTSKNQFSLQLSSLTPEDTAVYYCARVLLLRDPLSLDYWGQGTQVTVSS VL: SSALTQPPSMSGTLGKTLTISCAGTSSDIGAYNFVSWYQQLPGTAPKLLIYDIDKRASGIPDRFSGSKSGNTASLSISGLQSEDEADYYCAAYGSRDNVVFGGGTHLTVL	4.16e+09	0.24	0.000675	2.81e+06
5A7 scFv-Fc (Fc fusion, scFv-Fc format) VH: EVQVQESGPGLVKPSQTLSLTCTVSGASITNRRYAWTWIRQPPGKGLEWMGVIVYDGNTHVSPSLRSRTSISRDTSKNQFSLQLSSLTPEDTAVYYCARVLLLRDPLSLDYWGQGTQVTVSS VL: SSALTQPPSMSGTLGKTLTISCAGTSSDIGAYNFVSWYQQLPGTAPKLLIYDIDKRASGIPDRFSGSKSGNTASLSISGLQSEDEADYYCAAYGSRDNVVFGGGTHLTVL	2.08e+09	0.48	0.000647	1.35e+06
7A9 scFv-Fc (Fc fusion, scFv-Fc format) VH: EVQVQESGPGLVKPSQTLSLTCTVSGASITNRRYAWTWIRQPPGKGLEWMGVIVYDGNTHVSPSLRSRTSISRDTSKNQFSLQLSSLTPEDTAVYYCARVLLLRDPLSLDYWGQGTQVTVSS VL: SSALTQPPSMSGTLGKTLTISCAGTSSDIGAYNFVSWYQQLPGTAPKLLIYDIDKRASGIPDRFSGSKSGNTASLSISGLQSEDEADYYCAAYGSRDNVVFGGGTHLTVL	3.87e+09	0.258	0.00067	2.59e+06
